Measured values: paper PMC5472775

Legend:
[1] = target: CENP-C-CD R521A R521A (Homo sapiens) (UniProt Q03188); experiment: EMSA; conditions: apparent Kd; 200 nM nucleosome; EMSA: 200 nM nucleosomes, 20 mM Tris-Cl pH 7.5, 1 mM EDTA, 1 mM DTT, on ice 1 h, 5% native PAGE; footprinting at room temperature, 5 min
[2] = target: CENP-C-CD R522A R522A (Homo sapiens) (UniProt Q03188); experiment: EMSA; conditions: apparent Kd; 200 nM nucleosome; EMSA: 200 nM nucleosomes, 20 mM Tris-Cl pH 7.5, 1 mM EDTA, 1 mM DTT, on ice 1 h, 5% native PAGE; footprinting at room temperature, 5 min

With “ATCAAATATCCACCTGCAGATTCTACCAAAAGTGTATTTGGAAACTGCTCCATCAAAAGGCATGTTCAGCTCTGTGAGTGAAACTCCATCATCACAAAGAATATTCTGAGAATGCTTCCGTTTGCCTTTTATATGAACTTCCTCGAT (double strand) [CENP-A NCP, Cy5-H2B, 147 bp DNA]” the Kd [1] was 267 nM and the Kd [2] was 655 nM.
